According to PMC7889586, “Effects of Conserved Wedge Domain Residues on DNA Binding Activity of Deinococcus radiodurans RecG Helicase”:

Experiments:
DrRecG-WD WT = biological target: T1, DrRecG-WD WT (Deinococcus radiodurans R1, UniProt Q9RT50 158-235); experiment: EMSA; 100 nM HJ; near saturation at 160 nM protein; 5 mM EDTA; 50 mM Tris-HCl pH 8.0, 5 mM EDTA, 1 mM DTT, 100 ug/ml BSA, 6% glycerol, on ice 15 min; 100 nM HJ; 6% polyacrylamide gel at room temperature; details: protein: recombinant; tags: MBP (N-terminal fusion, pMAL-c2x); four-way junction of 4 strands, 1 copy each
T1 sequence: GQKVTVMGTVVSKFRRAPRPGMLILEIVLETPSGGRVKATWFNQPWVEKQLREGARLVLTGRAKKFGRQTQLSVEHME

EcRecG-WD QPW = biological target: T2, EcRecG-WD QPW (Escherichia coli MG1655, UniProt P24230 59-135, F99Q;S100P;A101W); experiment: EMSA; 100 nM HJ; significantly increased vs EcRecG-WD WT; 5 mM EDTA; 50 mM Tris-HCl pH 8.0, 5 mM EDTA, 1 mM DTT, 100 ug/ml BSA, 6% glycerol, on ice 15 min; 100 nM HJ; 6% polyacrylamide gel at room temperature; details: protein: recombinant; tags: MBP (N-terminal fusion, pMAL-c2x); four-way junction of 4 strands, 1 copy each
T2 sequence: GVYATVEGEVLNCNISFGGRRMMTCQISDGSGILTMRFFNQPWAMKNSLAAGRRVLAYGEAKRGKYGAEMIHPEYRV

B1: Holliday junction (oligos 1-4) (structured_DNA)
DNA 1: GTCGGATCCTCTAGACAGCTCCATGATCACTGGCACTGGTAGAATTCGGC
DNA 2: CAACGTCATAGACGATTACATTGCTACATGGAGCTGTCTAGAGGATCCGA
DNA 3: TGCCGAATTCTACCAGTGCCAGTGATGGACATCTTTGCCACGTTGACCC
DNA 4: TGGGTCAACGTGGGCAAGATGTCCTAGCAATGTAATCGTCTATGACGT
B1: binds (DrRecG-WD WT); binds (EcRecG-WD QPW).
